Biological target: T1, Estrogen receptor alpha (ERα) (UniProt P03372 1-595, limits assumed)
T1 sequence (looked up): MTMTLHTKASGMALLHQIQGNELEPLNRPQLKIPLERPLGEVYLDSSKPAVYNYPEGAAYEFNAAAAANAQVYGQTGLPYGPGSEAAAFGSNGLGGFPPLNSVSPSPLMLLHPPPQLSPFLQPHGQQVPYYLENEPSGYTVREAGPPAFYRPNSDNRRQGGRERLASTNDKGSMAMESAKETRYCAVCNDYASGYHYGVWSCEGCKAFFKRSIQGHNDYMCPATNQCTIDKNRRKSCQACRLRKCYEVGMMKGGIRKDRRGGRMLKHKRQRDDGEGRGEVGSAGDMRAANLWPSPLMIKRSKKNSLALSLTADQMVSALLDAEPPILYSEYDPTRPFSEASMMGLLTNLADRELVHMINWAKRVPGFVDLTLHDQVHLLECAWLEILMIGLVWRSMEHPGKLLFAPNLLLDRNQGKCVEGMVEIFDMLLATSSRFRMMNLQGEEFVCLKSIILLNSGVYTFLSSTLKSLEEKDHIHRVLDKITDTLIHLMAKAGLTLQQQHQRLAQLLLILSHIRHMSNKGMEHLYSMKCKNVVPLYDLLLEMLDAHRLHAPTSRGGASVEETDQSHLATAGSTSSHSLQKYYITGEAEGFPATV
Test: cell-based or functional assay

ERα reporter activity (ERE-luciferase), loss of coactivator activity relative to vector and compared to WBP2: ~60%
B1: WBP2 Y192-231F phospho-defective double mutant, V5-tagged (other, not shown: small tags and cut ends)
chain: MALNKNHSEGGGVIVNNTESILMSYDHVELTFNDMKNVPEAFKGTKKGTVYLTPYRVIFLSKGKDAMQSFMMPFYLMKDCEIKQPVFGANYIKGTVKAEAGGGWEGSASYKLTFTAGGAIEFGQRMLQVASQASRGEVPSGAYGYSYMPSGAYVYPPPVANGMYPCPPGYPYPPPPPEFYPGPPMMDGAMGFVQPPPPPYPGPMEPPVSGPDVPSTPAAEAKAAEAAASAFYNPGNPHNVYMPTSQPPPPPYYPPEDKKTQ

From patent US20130273056A1 (NATIONAL UNIVERSITY OF SINGAPORE, published 2013)
